Laboratory results from patent publication US20210388087A1 (Chugai, published 2021).

Molecular target: T1, Human CD137 ECD (human)
T1 construct: also called 4-1BB
Assay: single mutant vs template dBBDu183H

T1 sequence (chain, as listed by the source limits assumed): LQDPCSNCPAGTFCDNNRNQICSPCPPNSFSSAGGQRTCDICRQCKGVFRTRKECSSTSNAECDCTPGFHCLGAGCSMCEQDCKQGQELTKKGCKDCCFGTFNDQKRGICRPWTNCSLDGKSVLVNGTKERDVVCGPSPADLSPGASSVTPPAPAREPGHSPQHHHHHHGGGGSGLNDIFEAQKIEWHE

Row | Binder | fold change of affinity
1 | H183/L072 VH K64L (antibody, name in Kabat numbering, V domains shown) VH: QVQLVESGGGLVQPGRSLRLSCAASGFTFSNAWMHWVRQAPGKGLEWVAQIKDKGNAYAAYYAPSVLGRFTISRDDSKNSIYLQMNSLKTEDTAVYYCHYVHYASASTVLPAFGVDAWGQGTTVTVSS VL: DIVMTQSPLSLPVTPGEPASISCQASQELVHMNRNTYLHWYQQKPGQAPRLLIYKVSNRFPGVPDRFSGSGSGTDFTLKISRVEAEDVGVYYCAQGTSVPFTFGQGTKLEIK | 1.1 fold
2 | H183/L072 VH K64P (antibody, name in Kabat numbering, V domains shown) VH: QVQLVESGGGLVQPGRSLRLSCAASGFTFSNAWMHWVRQAPGKGLEWVAQIKDKGNAYAAYYAPSVPGRFTISRDDSKNSIYLQMNSLKTEDTAVYYCHYVHYASASTVLPAFGVDAWGQGTTVTVSS VL: DIVMTQSPLSLPVTPGEPASISCQASQELVHMNRNTYLHWYQQKPGQAPRLLIYKVSNRFPGVPDRFSGSGSGTDFTLKISRVEAEDVGVYYCAQGTSVPFTFGQGTKLEIK | 0.7 fold
3 | H183/L072 VH K64M (antibody, name in Kabat numbering, V domains shown) VH: QVQLVESGGGLVQPGRSLRLSCAASGFTFSNAWMHWVRQAPGKGLEWVAQIKDKGNAYAAYYAPSVMGRFTISRDDSKNSIYLQMNSLKTEDTAVYYCHYVHYASASTVLPAFGVDAWGQGTTVTVSS VL: DIVMTQSPLSLPVTPGEPASISCQASQELVHMNRNTYLHWYQQKPGQAPRLLIYKVSNRFPGVPDRFSGSGSGTDFTLKISRVEAEDVGVYYCAQGTSVPFTFGQGTKLEIK | 1.1 fold

Other lines, results leading:

Row | fold change of affinity | Binder
4 | 0.1 fold | H183/L072 VH M34H (antibody, name in Kabat numbering, V domains shown) VH: QVQLVESGGGLVQPGRSLRLSCAASGFTFSNAWHHWVRQAPGKGLEWVAQIKDKGNAYAAYYAPSVKGRFTISRDDSKNSIYLQMNSLKTEDTAVYYCHYVHYASASTVLPAFGVDAWGQGTTVTVSS VL: DIVMTQSPLSLPVTPGEPASISCQASQELVHMNRNTYLHWYQQKPGQAPRLLIYKVSNRFPGVPDRFSGSGSGTDFTLKISRVEAEDVGVYYCAQGTSVPFTFGQGTKLEIK
5 | 2.5 fold | H183/L072 VH M34F (antibody, name in Kabat numbering, V domains shown) VH: QVQLVESGGGLVQPGRSLRLSCAASGFTFSNAWFHWVRQAPGKGLEWVAQIKDKGNAYAAYYAPSVKGRFTISRDDSKNSIYLQMNSLKTEDTAVYYCHYVHYASASTVLPAFGVDAWGQGTTVTVSS VL: DIVMTQSPLSLPVTPGEPASISCQASQELVHMNRNTYLHWYQQKPGQAPRLLIYKVSNRFPGVPDRFSGSGSGTDFTLKISRVEAEDVGVYYCAQGTSVPFTFGQGTKLEIK
6 | 0.9 fold | H183/L072 VH L100dM (antibody, name in Kabat numbering, V domains shown) VH: QVQLVESGGGLVQPGRSLRLSCAASGFTFSNAWMHWVRQAPGKGLEWVAQIKDKGNAYAAYYAPSVKGRFTISRDDSKNSIYLQMNSLKTEDTAVYYCHYVHYASASTVMPAFGVDAWGQGTTVTVSS VL: DIVMTQSPLSLPVTPGEPASISCQASQELVHMNRNTYLHWYQQKPGQAPRLLIYKVSNRFPGVPDRFSGSGSGTDFTLKISRVEAEDVGVYYCAQGTSVPFTFGQGTKLEIK
7 | 0.8 fold | H183/L072 VH L100dA (antibody, name in Kabat numbering, V domains shown) VH: QVQLVESGGGLVQPGRSLRLSCAASGFTFSNAWMHWVRQAPGKGLEWVAQIKDKGNAYAAYYAPSVKGRFTISRDDSKNSIYLQMNSLKTEDTAVYYCHYVHYASASTVAPAFGVDAWGQGTTVTVSS VL: DIVMTQSPLSLPVTPGEPASISCQASQELVHMNRNTYLHWYQQKPGQAPRLLIYKVSNRFPGVPDRFSGSGSGTDFTLKISRVEAEDVGVYYCAQGTSVPFTFGQGTKLEIK
8 | 0 fold | H183/L072 VH L100dI (antibody, name in Kabat numbering, V domains shown) VH: QVQLVESGGGLVQPGRSLRLSCAASGFTFSNAWMHWVRQAPGKGLEWVAQIKDKGNAYAAYYAPSVKGRFTISRDDSKNSIYLQMNSLKTEDTAVYYCHYVHYASASTVIPAFGVDAWGQGTTVTVSS VL: DIVMTQSPLSLPVTPGEPASISCQASQELVHMNRNTYLHWYQQKPGQAPRLLIYKVSNRFPGVPDRFSGSGSGTDFTLKISRVEAEDVGVYYCAQGTSVPFTFGQGTKLEIK
